This note sets out measurements from US20200317768A1 (published 2020).

Numbering of substitutions follows the chain as printed.

What all share (test): SPR (BIACORE), antibody captured on chip, FcγR as analyte, 25 C; KD of SG1 divided by KD of the variant
Experiment [1] has as its target T1, cynomolgus monkey FcγRIIa2 extracellular domain, His-tagged (cynomolgus monkey).
T1 construct: also called cyno FcγRIIa2; FcgRIIa2; not shown: His-tag added to the C-terminus
T1 chain: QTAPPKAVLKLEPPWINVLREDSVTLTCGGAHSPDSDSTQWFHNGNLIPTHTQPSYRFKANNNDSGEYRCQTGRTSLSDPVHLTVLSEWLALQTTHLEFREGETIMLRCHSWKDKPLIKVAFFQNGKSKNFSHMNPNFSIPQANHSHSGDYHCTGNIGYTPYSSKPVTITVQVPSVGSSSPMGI
The protocol:
(§1) After the measurement, the antibody captured on the chip was washed off by allowing reaction with 10 mM glycine-HCl, pH1.5 and 25 mM NaOH so that the chip was regenerated and used repeatedly. The sensorgrams obtained as measurement results were analyzed by the 1:1 Langmuir binding model using the BIACORE® Evaluation Software to calculate the binding rate constant ka (L/mol/s) and dissociation rate constant kd (l/s), and the dissociation constant KD (mol/L) was calculated from these values. […] Regarding such interactions, KD values were calculated using the following 1:1 binding model described in BIACORE® T100 Software Handbook BR1006-48 Edition AE.
(§2) The behavior of interacting molecules according to the 1:1 binding model on BIACORE® can be described by Equation 1: Req=C·R max/(KD+C)+RI, wherein, Req is a plot of steady-state binding levels to analyte concentration. C is concentration, RI is bulk refractive index contribution in the sample, and Rmax is analyte binding capacity of the surface. When this equation is rearranged, KD can be expressed as Equation 2: KD=C·Rmax/(Req−RI)−C. KD can be calculated by substituting the values of Rmax, RI, and C into Equation 1 or Equation 2. From the current measurement conditions, RI=0, C=2 μmol/L can be used.

Experiment [2] concerns the target T2, human FcγRIIaH extracellular domain, His-tagged (human, UniProt P12318 34-217).
T2 construct: also called human FcγRIIa (type H); FcgRIIaH; not shown: His-tag added to the C-terminus
T2 sequence: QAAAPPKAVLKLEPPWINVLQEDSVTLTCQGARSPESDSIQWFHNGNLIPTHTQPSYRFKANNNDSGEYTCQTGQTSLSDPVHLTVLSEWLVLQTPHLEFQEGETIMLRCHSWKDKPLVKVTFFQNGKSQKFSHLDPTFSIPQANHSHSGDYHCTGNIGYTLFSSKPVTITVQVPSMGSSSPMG
The protocol:
as §1, §2

Experiment [3] deals with T3, human FcγRIIaR extracellular domain, His-tagged (human, UniProt P12318 34-217).
T3 construct: also called human FcγRIIa (type R); FcgRIIaR; not shown: His-tag added to the C-terminus
T3 chain: T2 sequence with H134R
The protocol:
as §1, §2

For experiment [4], the target named is T4, cynomolgus monkey FcγRIIb extracellular domain, His-tagged (cynomolgus monkey).
T4 construct: also called cyno FcγRIIb; cynoFcγRIIb; not shown: His-tag added to the C-terminus
T4 chain: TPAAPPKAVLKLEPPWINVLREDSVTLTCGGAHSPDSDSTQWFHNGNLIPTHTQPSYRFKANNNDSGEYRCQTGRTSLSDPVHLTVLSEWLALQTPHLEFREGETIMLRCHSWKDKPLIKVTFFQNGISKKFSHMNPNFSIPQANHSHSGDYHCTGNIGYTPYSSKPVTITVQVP
The protocol:
as §1, §2

Experiment [5] has as its target T5, cynomolgus monkey FcγRIIa1 extracellular domain, His-tagged (cynomolgus monkey).
T5 construct: also called cyno FcγRIIa1; FcgRIIa1; not shown: His-tag added to the C-terminus
T5 chain: T1 chain with T95P, A121T, K127I, S128A, N130K, N135D, Q142R
The protocol: as §1, §2

The target in experiment [6] is T6, cynomolgus monkey FcγRIIIaS extracellular domain, His-tagged (cynomolgus monkey, UniProt A3RFZ7 21-206 (rhesus entry)).
T6 construct: also called cyno FcγRIIIaS; FcgRIIIaS; not shown: His-tag added to the C-terminus
T6 sequence (A3RFZ7 21-206): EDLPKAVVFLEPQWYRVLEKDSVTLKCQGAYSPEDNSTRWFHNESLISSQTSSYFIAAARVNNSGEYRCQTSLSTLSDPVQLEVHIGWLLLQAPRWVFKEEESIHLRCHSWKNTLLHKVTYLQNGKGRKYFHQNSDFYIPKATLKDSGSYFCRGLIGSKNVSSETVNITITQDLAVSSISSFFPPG
The protocol: as §1, §2

Experiment [7] has as its target T7, human FcγRIIb extracellular domain, His-tagged (human, UniProt P31994 43-217).
T7 construct: also called FcgRIIb (human); not shown: His-tag added to the C-terminus
T7 sequence: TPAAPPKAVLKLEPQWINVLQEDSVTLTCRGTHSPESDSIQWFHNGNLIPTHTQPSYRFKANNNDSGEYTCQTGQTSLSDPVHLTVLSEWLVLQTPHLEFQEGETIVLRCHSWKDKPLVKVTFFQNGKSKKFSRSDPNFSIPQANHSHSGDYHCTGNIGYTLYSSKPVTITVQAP
The protocol: as §1, §2

Experiment [8] deals with T8, human FcγRIIIaV extracellular domain, His-tagged (human, UniProt P08637 17-208).
T8 construct: also called human FcγRIIIa (allotype V158); FcgRIIIaV; not shown: His-tag added to the C-terminus
T8 sequence (P08637 17-208 F176V): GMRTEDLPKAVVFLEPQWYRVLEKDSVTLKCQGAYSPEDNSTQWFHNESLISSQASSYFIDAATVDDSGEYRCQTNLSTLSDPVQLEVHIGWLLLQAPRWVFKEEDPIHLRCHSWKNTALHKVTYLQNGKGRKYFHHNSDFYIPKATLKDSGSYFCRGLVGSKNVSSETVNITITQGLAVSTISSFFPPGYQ
The protocol:
as §1, §2

The target in experiment [9] is T9, cynomolgus monkey FcγRIIa3 extracellular domain, His-tagged (cynomolgus monkey).
T9 construct: also called cyno FcγRIIa3; FcgRIIa3; not shown: His-tag added to the C-terminus
T9 chain: T1 chain with K127I, N130K, H133P, Q142R
The protocol:
as §1, §2

B1: M103205H795-MY329 / M103202L889-SK1 (antibody, human IgG1, kappa)
heavy: QVTLKESGPVLVKPTETLTLTCTVSGIDLSHDDISWVRQAPGKGLEWVGIISYAGSTYYASWAKGRLTISKDTSKNQVVLTMTNMDPVDTATYYCARGVPAYSHGGDLWGQGTLVTVSSASTKGPSVFPLAPSSKSTSGGTAALGCLVKDYFPEPVTVSWNSGALTSGVHTFPAVLQSSGLYSLSSVVTVPSSSLGTQTYICNVNHKPSNTKVDKKVEPKSCDKTHTCPPCPAPELLDGPSVFLFPPKPKDTLMISRTPEVTCVVVDVSDEDPEVKFNWYVDGVEVHNAKTKPREELYNSTYRVVSVLTVLHQDWLNGKEYKCKVSNKALPKPIEKTISKAKGQPREPQVYTLPPSREEMTKNQVSLTCLVKGFYPSDIAVEWESNGQPENNYKTTPPVLDSDGSFFLYSKLTVDKSRWQQGNVFSCSVMHEALHNHYTQKSLSLSP
light: DIVMTQSPATLSLSPGERATLSCTSSQSVYHANWLSWFQQKPGQPPKLLIYWASTLAYGVPSRFSGSGSGTDFTLTISSLQPEDAATYYCAGGYGGGRYAFGQGTKVEIKRTVAAPSVFIFPPSDEQLKSGTASVVCLLNNFYPREAKVQWKVDNALQSGNSQESVTEQDSKDSTYSLSSTLTLSKADYEKHKVYACEVTHQGLSSPVTKSFNRGEC
notes: Fc variant made by introducing the substitutions into M103205H795-SG1; the list of substitutions runs over r151c2 and r152c2; Expressed with M103202L889-SK1 as light chain
As to B1, the “KD fold for cynoFcgRs (SG1 = 1)” value amounted to 1.6 fold in experiment [1]; 3.1 fold in experiment [4]; 1.7 fold in experiment [5]; 0.16 fold in [6]; 4.6 fold in experiment [9]. Also, the “KD fold for humanFcgRs (SG1 = 1)” value in experiment [2] came out at 2.6 fold; in experiment [3], 5.2 fold; in [7], 28.8 fold; in experiment [8], 0.13 fold.

B2: M103205H795-MY327 / M103202L889-SK1 (antibody, human IgG1, kappa)
heavy: B1 heavy with D270E
light: B1 light
notes: Fc variant made by introducing the substitutions into M103205H795-SG1; the list of substitutions runs over r149c2 and r150c2; Expressed with M103202L889-SK1 as light chain
In the case of B2, the “KD fold for cynoFcgRs (SG1 = 1)” value turned out to be 1.1 fold in experiment [1]; 1.8 fold in experiment [4]; 0.9 fold in [5]; 0.08 fold in [6]; 3.2 fold in experiment [9]. Besides, the “KD fold for humanFcgRs (SG1 = 1)” value in [2] was determined as 2 fold; in experiment [3], 3.3 fold; in [7], 27 fold; in experiment [8] it was 0.08 fold.

B3: M103205H795-MY325 / M103202L889-SK1 (antibody, human IgG1, kappa)
heavy: B1 heavy with L297Q
light: B1 light
notes: expressed with M103202L889-SK1 as light chain
For B3, the “KD fold for cynoFcgRs (SG1 = 1)” value in [1] was determined as 1.2 fold; in [4], 1.8 fold; in [5], 0.8 fold; in experiment [6], 0.09 fold; in experiment [9], 2.9 fold. The “KD fold for humanFcgRs (SG1 = 1)” value in experiment [2] was 1.4 fold; in experiment [3], 3.7 fold; in experiment [7], 17.7 fold; in experiment [8] it was 0.1 fold.
